Experimental data published in the Immune Epitope Database (IEDB).

What was measured:
Assay in all cases: IEDB peptide-MHC binding, purified MHC/competitive/radioactivity; filed as Kd, often an IC50 or EC50 that approximates it; ≥ and ≤ were set here for values at or beyond the usual limits of such assays
[1] = target: HLA-A*02:02
[2] = target: HLA-A*02:03
[3] = target: HLA-A*02:06
[4] = target: HLA-A*68:01
[5] = target: HLA-A*11:01
[6] = target: HLA-A*03:01
[7] = target: HLA-A*33:01
[8] = target: HLA-A*31:01
[9] = source organism: Vaccinia virus WR
[10] = source organism: Mammarenavirus guanaritoense
[11] = source organism: Lassa virus Josiah
[12] = source organism: Lymphocytic choriomeningitis virus (strain Armstrong)
[13] = source organism: SARS coronavirus Tor2
[14] = source organism: Mammarenavirus machupoense
[15] = source organism: Mammarenavirus whitewaterense

SIKMIYDLNA
Kd [1, 9]: 852 nM | Kd [2, 9]: 257 nM | Kd [3, 9]: 1030 nM

SLVKESMASL
Kd [1, 9]: 994 nM | Kd [2, 9]: 7.78 nM | Kd [3, 9]: 1430 nM

SMASLKSLY
Kd [4, 9]: 26.5 nM | Kd [5, 9]: 38.4 nM | Kd [6, 9]: 1.21 nM | Kd [7, 9]: 16100 nM | Kd [8, 9]: 692 nM

SMYGKAFNHA
Kd [1, 9]: 6.58 nM | Kd [2, 9]: 0.929 nM | Kd [3, 9]: 4.03 nM

SSVQLSNNK
Kd [4, 9]: 19.9 nM | Kd [5, 9]: 5.21 nM | Kd [6, 9]: 2200 nM | Kd [7, 9]: ≥ 77700 nM | Kd [8, 9]: 4580 nM

STFNMWREI
Kd [1, 9]: 5820 nM | Kd [2, 9]: 713 nM | Kd [3, 9]: 94.6 nM

STYPGNTFV
Kd [1, 9]: 10.8 nM | Kd [2, 9]: 0.192 nM | Kd [3, 9]: 0.464 nM

SVDFVVNGHT
Kd [1, 9]: ≥ 70000 nM | Kd [2, 9]: ≥ 70400 nM | Kd [3, 9]: ≥ 69800 nM

SVQLSNNKY
Kd [4, 9]: 1250 nM | Kd [5, 9]: 33.1 nM | Kd [6, 9]: 2710 nM | Kd [7, 9]: 13600 nM | Kd [8, 9]: 17500 nM

SYSKMSVVMR
Kd [4, 10]: 132 nM | Kd [5, 10]: ≥ 21700 nM | Kd [6, 10]: 9970 nM | Kd [7, 10]: 55.9 nM | Kd [8, 10]: 5.69 nM

TCQGSDDIRK
Kd [4, 11]: 5710 nM | Kd [5, 11]: 7000 nM | Kd [6, 11]: ≥ 70000 nM | Kd [7, 11]: ≥ 70000 nM | Kd [8, 11]: ≥ 49900 nM

TIFDIVSKCI
Kd [1, 9]: 198 nM | Kd [2, 9]: 94.4 nM | Kd [3, 9]: 701 nM

TILATLNTLI
Kd [1, 9]: 39.5 nM | Kd [2, 9]: 29.7 nM | Kd [3, 9]: 335 nM

TISGNIYSAL
Kd [1, 9]: 9.32 nM | Kd [2, 9]: 89.2 nM | Kd [3, 9]: 2670 nM

TLALSLTFI
Kd ([2]; source organism: Dengue virus 4 Philippines/H241/1956): 1.04 nM

TLGNFSWFPH
Kd [4, 12]: 8980 nM | Kd [5, 12]: 1380 nM | Kd [6, 12]: 2150 nM | Kd [7, 12]: 12600 nM | Kd [8, 12]: 570 nM

TLGVYDYLV
Kd [1, 13]: 0.245 nM | Kd [2, 13]: 936 nM | Kd [3, 13]: 74.8 nM

TLVVISVIFY
Kd [4, 9]: 8660 nM | Kd [5, 9]: 1370 nM | Kd [6, 9]: 3490 nM | Kd [7, 9]: ≥ 70000 nM | Kd [8, 9]: 12500 nM

TLYICDKQSH
Kd [4, 12]: ≥ 70100 nM | Kd [5, 12]: ≥ 47800 nM | Kd [6, 12]: 15100 nM | Kd [7, 12]: ≥ 70000 nM | Kd [8, 12]: ≥ 34300 nM

TMLRNSELCH
Kd [4, 14]: ≥ 70100 nM | Kd [5, 14]: ≥ 69700 nM | Kd [6, 14]: 10200 nM | Kd [7, 14]: ≥ 70000 nM | Kd [8, 14]: 8820 nM

TRFWYINHTK
Kd [4, 10]: 93.2 nM | Kd [5, 10]: 1410 nM | Kd [6, 10]: 1910 nM | Kd [7, 10]: ≥ 70000 nM | Kd [8, 10]: 89.5 nM

TTDDLVKSY
Kd [4, 9]: 12100 nM | Kd [5, 9]: 747 nM | Kd [6, 9]: ≥ 53000 nM | Kd [7, 9]: 18100 nM | Kd [8, 9]: 4700 nM

TTTIKPVSYK
Kd [4, 13]: 99.1 nM | Kd [5, 13]: 20.4 nM | Kd [6, 13]: 11.6 nM | Kd [7, 13]: 10600 nM | Kd [8, 13]: 1460 nM

TVLPHLCLDY
Kd [4, 9]: 701 nM | Kd [5, 9]: 2.99 nM | Kd [6, 9]: 4.08 nM | Kd [7, 9]: 6050 nM | Kd [8, 9]: 598 nM

VADLSARNKL
Kd [1, 9]: 1170 nM | Kd [2, 9]: 2160 nM | Kd [3, 9]: ≥ 35800 nM

VCFWSTLFY
Kd [4, 15]: ≥ 39200 nM | Kd [5, 15]: 930 nM | Kd [6, 15]: 138 nM | Kd [7, 15]: ≥ 77700 nM | Kd [8, 15]: ≥ 77900 nM

VLAWLYAAV
Kd [1, 13]: 0.0967 nM | Kd [2, 13]: 0.311 nM | Kd [3, 13]: 8.79 nM

VLHDIGNPK
Kd [4, 13]: 6520 nM | Kd [5, 13]: 34.3 nM | Kd [6, 13]: 21.5 nM | Kd [7, 13]: 7770 nM | Kd [8, 13]: 1960 nM

VTIKYSNDNR
Kd [4, 9]: 2.33 nM | Kd [5, 9]: 53.1 nM | Kd [6, 9]: 10300 nM | Kd [7, 9]: 6710 nM | Kd [8, 9]: 402 nM

WFSQRGGSYK
Kd [4, 13]: 142 nM | Kd [5, 13]: 152 nM | Kd [6, 13]: 190 nM | Kd [7, 13]: 114 nM | Kd [8, 13]: 178 nM

WIKDIMTST
Kd [1, 9]: 193 nM | Kd [2, 9]: 11.5 nM | Kd [3, 9]: 136 nM

WIKNLETYT
Kd [1, 9]: 18300 nM | Kd [2, 9]: 637 nM | Kd [3, 9]: 8210 nM

YASLTTIGT
Kd [1, 9]: 409 nM | Kd [2, 9]: 144 nM | Kd [3, 9]: 161 nM

YLGVNNLPY
Kd [4, 9]: ≥ 52700 nM | Kd [5, 9]: 1490 nM | Kd [6, 9]: 1300 nM | Kd [7, 9]: ≥ 77700 nM | Kd [8, 9]: ≥ 77900 nM

YLRGHTESI
Kd [1, 9]: 0.206 nM | Kd [2, 9]: 0.176 nM | Kd [3, 9]: 90.9 nM

YLSSVLLAL
Kd [1, 13]: 0.144 nM | Kd [2, 13]: 0.308 nM | Kd [3, 13]: 8.16 nM

YTLIYRQLT
Kd [1, 9]: 6410 nM | Kd [2, 9]: 9420 nM | Kd [3, 9]: 17600 nM

YVIRHVDGKI
Kd [1, 9]: 621 nM | Kd [2, 9]: 114 nM | Kd [3, 9]: 522 nM

YVPSAEDNY
Kd [4, 9]: ≥ 36100 nM | Kd [5, 9]: ≥ 77900 nM | Kd [6, 9]: ≥ 78000 nM | Kd [7, 9]: ≥ 77700 nM | Kd [8, 9]: ≥ 77900 nM
